Measured values taken from US20060003407A1 (Biogen, published 2006).

B1: truncated human APRIL ligand polypeptide encoded by amino acid residues 105-250 of SEQ ID NO: 6 (ligand, not shown: small tags and cut ends)
chain: AVLTQKQKKQHSVLHLVPINATSKDDSDVTEVMWQPALRRGRGLQAQGYGVRIQDAGVYLLYSQVLFQDVTFTMGQVVSREGQGRQETLFRCIRSMPSHPDRAYNSCYSAGVFHLHQGDILSVIIPRARAKLNLSPHGTFLGFVKL
notes: also called longer truncate of human APRIL ligand polypeptide
B2: FLAG-tagged truncated human APRIL ligand polypeptide (amino acids 115-250 of SEQ ID NO: 6) (ligand, not shown: small tags and cut ends)
chain: HSVLHLVPINATSKDDSDVTEVMWQPALRRGRGLQAQGYGVRIQDAGVYLLYSQVLFQDVTFTMGQVVSREGQGRQETLFRCIRSMPSHPDRAYNSCYSAGVFHLHQGDILSVIIPRARAKLNLSPHGTFLGFVKL
notes: Expressed in 293T cells; Tested both purified (anti-FLAG M1, SP Sepharose, Superdex 200) and unpurified in cell medium (SN); also called FLAGhuAPRIL purified; FLAGhuAPRIL SN

Tests used:
[1] = biological target: T1, TACI on TACI+ expressing IM9 cell line (UniProt O14836 1-293, limits assumed); assay: FACS on TACI+IM9 cells, 1 to 50 ng/mL ligand; the filing calls a major component of this binding nonspecific
T1 construct: whole, on cells; also called TACI+IM9 cells; TACI+ in IM9 cells
T1 sequence (looked up): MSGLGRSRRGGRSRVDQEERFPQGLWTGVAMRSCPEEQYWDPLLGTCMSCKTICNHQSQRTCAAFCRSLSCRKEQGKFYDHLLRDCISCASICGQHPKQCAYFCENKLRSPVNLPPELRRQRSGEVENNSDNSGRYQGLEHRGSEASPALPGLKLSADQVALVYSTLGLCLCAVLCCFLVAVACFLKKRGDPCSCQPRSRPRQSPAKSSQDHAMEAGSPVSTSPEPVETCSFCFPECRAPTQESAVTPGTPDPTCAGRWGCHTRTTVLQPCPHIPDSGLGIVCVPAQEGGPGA

[2] = biological target: T1, TACI on TACI+ expressing IM9 cell line; assay: FACS on TACI+IM9 cells, 1 to 50 ng/mL ligand

| Binder | binding result [1] | binding result [2] |
| --- | --- | --- |
| B1 | binds |  |
| B2 |  | binds |
